# In patent US20110251140A1 (CENTRO DE INGENIERIA GENETICA Y BIOTECNOLOGIA, published 2011):
# No end group written: not given here.
# B1: peptide SEQ ID No. 12 (Lys-Thr mutant, monomer) (peptide)
# peptide: KVTAMTCFLL-NH2
# B2: peptide dimer of SEQ ID No. 12 linked through the free Cys (peptide)
# peptide: KVTAMTCFLL-NH2
# modifications: also: homodimer, two monomers linked through the free Cys
# B3: KVTAMECFLL (peptide)
# peptide: KVTAMECFLL-NH2
# B4: mutant Phe-Ala (SEQ ID No. 4) (peptide)
# peptide: KVTAMKCALL-NH2
# B5: KVTAMKCFLL (IL-15 antagonistic peptide of patent application No. WO2006/029578) (peptide)
# peptide: KVTAMKCFLL-NH2
# B6: KVTAMKSFLL (peptide)
# peptide: KVTAMKSFLL-NH2
# B7: KATAMKCFLL (peptide)
# peptide: KATAMKCFLL-NH2
# B8: KVTAMTCYLL (peptide)
# peptide: KVTAMTCYLL-NH2
# B9: KVTAMKCFLA (peptide)
# peptide: KVTAMKCFLA-NH2
# B10: KVAAMKCFLL (peptide)
# peptide: KVAAMKCFLL-NH2
# B11: Cys-Ala mutant (SEQ ID No. 5) (peptide)
# peptide: KVTAMKAFLL-NH2
# B12: KVTAMKCFAL (peptide)
# peptide: KVTAMKCFAL-NH2
# B13: KVTAAKCFLL (peptide)
# peptide: KVTAAKCFLL-NH2
# Biological target: T1, IL-15Rα on CTLL-2 cells (murine (CTLL-2 murine cell line), UniProt Q60819 33-263)
# T1 sequence (looked up): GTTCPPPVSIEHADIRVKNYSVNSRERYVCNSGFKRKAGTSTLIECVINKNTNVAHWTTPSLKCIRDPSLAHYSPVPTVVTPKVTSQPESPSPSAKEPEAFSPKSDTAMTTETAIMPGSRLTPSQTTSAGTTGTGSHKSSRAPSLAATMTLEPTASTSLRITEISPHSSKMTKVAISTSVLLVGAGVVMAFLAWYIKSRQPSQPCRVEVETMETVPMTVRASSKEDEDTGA
# Assay: cell-based or functional assay
Binder,"fold inhibitory activity against the original peptide, CTLL-2 proliferation assay [fold]","inhibitory concentration 50 (IC50), IL-15-dependent proliferation [µM]"
B1,5,–
B2,15,8

# Biological target: T1, IL-15Rα on CTLL-2 cells
# Assay: cell-based or functional assay
# Remark: another data set of the same source
Binder,"IC50 (µM), IL-15-induced proliferation of the CTLL-2 cell line, MTT; '0' stands for loss of the inhibitory effect [µM]","IC50 (µM), IL-15-induced (300 pg/mL) proliferation of the CTLL-2 cell line, MTT [µM]"
B3,0,–
B4,0,–
B5,–,130
B6,0,–
B7,–,130
B8,–,57.7
B9,–,260
B10,–,130
B11,0,–
B12,–,200
B1,–,24.6
B13,–,130
